In the test the target is Polyubiquitinated model substrate (lac repressor degron-sfGFP) bearing long ubiquitin chains (E. coli | not stated) (UniProt P0CG48). Description: MST.

As usually defined, the Kd is the equilibrium constant for the complex coming apart. Low readings indicate higher affinity, high ones lower affinity.

In turn, “Ddi1 construct containing the HDD and RVP domains (D220N) (domain or fragment)” showed a Kd of 100 µM.
